Measurements from the supplement of paper PMC9112550, “Optimization of the antimicrobial peptide Bac7 by deep mutational scanning” (BMC Biology, 2022).

test system: Escherichia coli TOP10; experiment: shrunken log2 fold change of peptide-encoding DNA abundance (4.5 h post-induction vs induction); higher = less antimicrobial activity (less host growth inhibition); conditions: time post-induction: 4.5 h; library: site-saturation at positions 5, 18, 19, 20
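Also: peptides expressed intracellularly from a pBAD plasmid library in pooled LB shake-flask culture, induced with 0.3% L-arabinose, DNA abundance read by NGS, three biological replicates, DESeq2 with apeglm shrinkage.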

Row | Sequence | shrunken log2 fold change
1 | RRIRNRPPRLPRPRPRPLSIPRP | -0.423
2 | RRIRCRPPRLPRPRPRPLILPRP | -0.373
3 | RRIRCRPPRLPRPRPRPCLPPRP | -0.439
4 | RRIRQRPPRLPRPRPRPRGHPRP | 0.342
5 | RRIRHRPPRLPRPRPRPFVIPRP | -0.331
6 | RRIRMRPPRLPRPRPRPVPGPRP | 0.882
7 | RRIRVRPPRLPRPRPRPLDMPRP | -0.024
8 | RRIRARPPRLPRPRPRPGGVPRP | 0.626
9 | RRIRNRPPRLPRPRPRPRINPRP | -0.14
10 | RRIRFRPPRLPRPRPRPMLSPRP | -0.0375
11 | RRIRFRPPRLPRPRPRPTLVPRP | -0.141
12 | RRIRGRPPRLPRPRPRPYERPRP | -1.8
13 | RRIRIRPPRLPRPRPRPVVLPRP | -0.21
14 | RRIRARPPRLPRPRPRPQHQPRP | 0.698
15 | RRIRIRPPRLPRPRPRPAHHPRP | -0.176
16 | RRIRYRPPRLPRPRPRPIRHPRP | 0.0879
17 | RRIRHRPPRLPRPRPRPDQTPRP | -0.0379
18 | RRIRTRPPRLPRPRPRPSQLPRP | -0.453
19 | RRIRIRPPRLPRPRPRPPEMPRP | -0.291
20 | RRIRWRPPRLPRPRPRPMVYPRP | 0.0222
21 | RRIRWRPPRLPRPRPRPECMPRP | 0.623
22 | RRIRHRPPRLPRPRPRPHALPRP | 0.0244
23 | RRIRFRPPRLPRPRPRPRDVPRP | 0.728
24 | RRIRSRPPRLPRPRPRPGKDPRP | 0.099
25 | RRIRMRPPRLPRPRPRPLATPRP | 2.2

Row | Sequence | shrunken log2 fold change
26 | RRIRRRPPRLPRPRPRPMLIPRP | -0.0813
27 | RRIRARPPRLPRPRPRPRANPRP | 0.694
28 | RRIRMRPPRLPRPRPRPWKMPRP | 0.0322
29 | RRIRHRPPRLPRPRPRPHRSPRP | -0.0796
30 | RRIRVRPPRLPRPRPRPQVLPRP | 0.00638
31 | RRIRFRPPRLPRPRPRPTYDPRP | -0.604
32 | RRIRNRPPRLPRPRPRPLKLPRP | -0.207
33 | RRIRARPPRLPRPRPRPNSNPRP | -0.0294
34 | RRIRFRPPRLPRPRPRPVHPPRP | 0.037
35 | RRIRWRPPRLPRPRPRPPIYPRP | 0.0337
36 | RRIRIRPPRLPRPRPRPDETPRP | -0.183
37 | RRIRVRPPRLPRPRPRPKAGPRP | 0.0641
38 | RRIRFRPPRLPRPRPRPWSSPRP | 0.0276
39 | RRIRGRPPRLPRPRPRPMYWPRP | -0.0689
40 | RRIRPRPPRLPRPRPRPAYIPRP | -0.518
41 | RRIRWRPPRLPRPRPRPPLCPRP | 0.668
42 | RRIRVRPPRLPRPRPRPLWYPRP | -0.263
43 | RRIRMRPPRLPRPRPRPHHQPRP | -0.526
44 | RRIRNRPPRLPRPRPRPGNRPRP | -0.0775
45 | RRIRIRPPRLPRPRPRPWPPPRP | 0.0965
46 | RRIRVRPPRLPRPRPRPQETPRP | 0.0431
47 | RRIRERPPRLPRPRPRPPYTPRP | -0.176
48 | RRIRTRPPRLPRPRPRPLRMPRP | -0.0962
49 | RRIRHRPPRLPRPRPRPFMCPRP | -0.57
50 | RRIRKRPPRLPRPRPRPGPPPRP | 0.922

Row | Sequence | shrunken log2 fold change
51 | RRIRHRPPRLPRPRPRPEITPRP | -0.0206
52 | RRIRHRPPRLPRPRPRPRMSPRP | -0.0693
53 | RRIRVRPPRLPRPRPRPPCFPRP | 0.17
54 | RRIRIRPPRLPRPRPRPHFIPRP | -0.564
55 | RRIRSRPPRLPRPRPRPRCLPRP | 0.0297
56 | RRIRERPPRLPRPRPRPAAWPRP | 0.443
57 | RRIRDRPPRLPRPRPRPAHGPRP | -0.0897
58 | RRIRERPPRLPRPRPRPDAAPRP | 0.635
59 | RRIRWRPPRLPRPRPRPAPAPRP | 1.38
60 | RRIRARPPRLPRPRPRPAMHPRP | 0.589
61 | RRIRIRPPRLPRPRPRPVIMPRP | -0.334
62 | RRIRMRPPRLPRPRPRPCDHPRP | 0.00316
63 | RRIRTRPPRLPRPRPRPNCLPRP | -0.0709
64 | RRIRPRPPRLPRPRPRPMRHPRP | -0.0129
65 | RRIRQRPPRLPRPRPRPRAPPRP | 0.749
66 | RRIRARPPRLPRPRPRPIVYPRP | -0.248
67 | RRIRDRPPRLPRPRPRPTCPPRP | -0.119
68 | RRIRPRPPRLPRPRPRPPKKPRP | 0.0716
69 | RRIRYRPPRLPRPRPRPLYWPRP | -0.943
70 | RRIRHRPPRLPRPRPRPEVDPRP | -0.00884
71 | RRIRKRPPRLPRPRPRPIEQPRP | -0.0195
72 | RRIRWRPPRLPRPRPRPSWNPRP | -0.212
73 | RRIRTRPPRLPRPRPRPQQFPRP | -0.0175
74 | RRIRKRPPRLPRPRPRPTGCPRP | 0.0439
75 | RRIRDRPPRLPRPRPRPQGDPRP | 0.0878

Row | Sequence | shrunken log2 fold change
76 | RRIRVRPPRLPRPRPRPGRNPRP | -0.00746
77 | RRIRMRPPRLPRPRPRPDICPRP | -0.01
78 | RRIRYRPPRLPRPRPRPTQDPRP | 0.542
79 | RRIRGRPPRLPRPRPRPAAWPRP | 0.936
80 | RRIRWRPPRLPRPRPRPPPSPRP | 0.794
81 | RRIRLRPPRLPRPRPRPNWQPRP | 0.351
82 | RRIRCRPPRLPRPRPRPLSKPRP | -0.103
83 | RRIRSRPPRLPRPRPRPDVIPRP | 0.0141
84 | RRIRERPPRLPRPRPRPFDKPRP | -1.7
85 | RRIRNRPPRLPRPRPRPLLTPRP | -0.046
86 | RRIRPRPPRLPRPRPRPKIPPRP | -0.408
87 | RRIRDRPPRLPRPRPRPFDSPRP | -0.0169
88 | RRIRNRPPRLPRPRPRPGITPRP | -0.326
89 | RRIRDRPPRLPRPRPRPGSYPRP | -0.0689
90 | RRIRLRPPRLPRPRPRPEALPRP | -0.00171
91 | RRIRARPPRLPRPRPRPSMEPRP | 0.146
92 | RRIRHRPPRLPRPRPRPIMCPRP | -0.245
93 | RRIRNRPPRLPRPRPRPCPWPRP | -0.141
94 | RRIRCRPPRLPRPRPRPVGPPRP | 0.326
95 | RRIRGRPPRLPRPRPRPKIEPRP | 0.566
96 | RRIRPRPPRLPRPRPRPTCTPRP | 0.104
97 | RRIRIRPPRLPRPRPRPSEWPRP | 0.151
98 | RRIRKRPPRLPRPRPRPDKLPRP | 0.367
99 | RRIRVRPPRLPRPRPRPKQMPRP | 0.114
100 | RRIRPRPPRLPRPRPRPIFRPRP | -0.0135

Row | Sequence | shrunken log2 fold change
101 | RRIRCRPPRLPRPRPRPVFCPRP | -0.131
102 | RRIRKRPPRLPRPRPRPGFRPRP | 0.942
103 | RRIRSRPPRLPRPRPRPLQRPRP | 0.0641
104 | RRIRKRPPRLPRPRPRPEHHPRP | -0.0888
105 | RRIRNRPPRLPRPRPRPRMQPRP | -0.0634
106 | RRIRIRPPRLPRPRPRPVDCPRP | 0.0257
107 | RRIRFRPPRLPRPRPRPGDSPRP | -0.305
108 | RRIRQRPPRLPRPRPRPIQCPRP | 0.0238
109 | RRIRARPPRLPRPRPRPKVEPRP | 0.571
110 | RRIRWRPPRLPRPRPRPYFWPRP | -0.222
111 | RRIRFRPPRLPRPRPRPAHAPRP | 0.0606
112 | RRIRVRPPRLPRPRPRPKTGPRP | -0.048
113 | RRIRHRPPRLPRPRPRPITVPRP | -0.0184
114 | RRIRFRPPRLPRPRPRPFYFPRP | -0.681
115 | RRIRGRPPRLPRPRPRPDEDPRP | 0.168
116 | RRIRFRPPRLPRPRPRPQMYPRP | -0.725
117 | RRIRQRPPRLPRPRPRPWTIPRP | -0.142
118 | RRIRCRPPRLPRPRPRPAAAPRP | 0.528
119 | RRIRCRPPRLPRPRPRPNKTPRP | -0.0276
120 | RRIRYRPPRLPRPRPRPFREPRP | -0.35
121 | RRIRERPPRLPRPRPRPSHTPRP | -0.248
122 | RRIRPRPPRLPRPRPRPVCTPRP | 0.0082
123 | RRIRNRPPRLPRPRPRPAAEPRP | 0.232
124 | RRIRYRPPRLPRPRPRPYVYPRP | -0.26
125 | RRIRKRPPRLPRPRPRPGVFPRP | 0.417

Row | Sequence | shrunken log2 fold change
126 | RRIRPRPPRLPRPRPRPHYMPRP | -0.747
127 | RRIRFRPPRLPRPRPRPKADPRP | -0.0989
128 | RRIRMRPPRLPRPRPRPEEQPRP | -0.00184
129 | RRIRARPPRLPRPRPRPWFSPRP | -0.00399
130 | RRIRYRPPRLPRPRPRPNHVPRP | -0.219
131 | RRIRTRPPRLPRPRPRPECFPRP | 0.146
132 | RRIRTRPPRLPRPRPRPPGPPRP | 0.53
133 | RRIRVRPPRLPRPRPRPNTIPRP | -0.571
134 | RRIRWRPPRLPRPRPRPECKPRP | 0.685
135 | RRIRERPPRLPRPRPRPCKIPRP | -0.00331
136 | RRIRDRPPRLPRPRPRPLVKPRP | 0.0947
137 | RRIRCRPPRLPRPRPRPNWQPRP | -0.145
138 | RRIRHRPPRLPRPRPRPRQPPRP | 0.474
139 | RRIRCRPPRLPRPRPRPYQPPRP | -0.152
140 | RRIRPRPPRLPRPRPRPRKGPRP | 0.322
141 | RRIRHRPPRLPRPRPRPLIPPRP | -0.244
142 | RRIRKRPPRLPRPRPRPNIWPRP | 0.519
143 | RRIRPRPPRLPRPRPRPYAWPRP | -0.152
144 | RRIRVRPPRLPRPRPRPELFPRP | 0.181
145 | RRIRKRPPRLPRPRPRPSNNPRP | -0.0375
146 | RRIRGRPPRLPRPRPRPQKKPRP | 0.0788
147 | RRIRLRPPRLPRPRPRPRDHPRP | 0.0215
148 | RRIRDRPPRLPRPRPRPDLRPRP | -0.0435
149 | RRIRIRPPRLPRPRPRPHYCPRP | -0.0772
150 | RRIRHRPPRLPRPRPRPNRMPRP | 0.0166
